# From patent US20240133870A1, “COMBINED TREATMENT FOR CANCER” (Yeda Research and Development Co. Ltd., priority 2021, published 2024)
# B1: FGF10: fibroblast growth factor 10, ligand of FGFR2IIIb (protein, UniProt O15520 38-208, looked up)
# Fibroblast growth factor 10: QALGQDMVSPEATNSSSSSFSSPSSAGRHVRSYNHLQGDVRWRKLFSFTKYFLKIEKNGKVSGTKKENCPYSILEITSVEIGVVAVKAINSNYYLAMNKKGKLYGSKEFNNDCKLKERIEENGYNTYASFNWQHNGRQMYVALNGKGAPRRGQKTRRKNTSAHFLPMVVHS
# B2: interferon gamma: anti-proliferative secreted factor (protein, UniProt P01579 24-161, looked up)
# Interferon gamma: QDPYVKEAENLKKYFNAGHSDVADNGTLFLGILKNWKEESDRKIMQSQIVSFYFKLFKNFKDDQSIQKSVETIKEDMNVKFFNSNKKKRDDFEKLTNYSVTDLNVQRKAIHELIQVMAELSPAAKTGKRKRSQMLFRG
# B3: AIMP1: aminoacyl tRNA synthetase complex interacting multifunctional protein 1 (protein, UniProt Q12904 2-312, looked up)
# Aminoacyl tRNA synthase …: ANNDAVLKRLEQKGAEADQIIEYLKQQVSLLKEKAILQATLREEKKLRVENAKLKKEIEELKQELIQAEIQNGVKQIPFPSGTPLHANSMVSENVIQSTAVTTVSSGTKEQIKGGTGDEKKAKEKIEKKGEKKEKKQQSIAGSADSKPIDVSRLDLRIGCIITARKHPDADSLYVEEVDVGEIAPRTVVSGLVNHVPLEQMQNRMVILLCNLKPAKMRGVLSQAMVMCASSPEKIEILAPPNGSVPGDRITFDAFPGEPDKELNPKKKIWEQIQPDLHTNDECVATYKGVPFEVKGKGVCRAQTMSNSGIK
# B4: BTC: EGFR ligand beta-cellulin (protein, UniProt P35070 32-111, looked up)
# Betacellulin: DGNSTRSPETNGLLCGDPEENCAATTTQSKRKGHFSRCPKQYKHYCIKGRCRFVVAEQTPSCVCDEGYIGARCERVDLFY
# B5: FGF7: fibroblast growth factor 7, ligand of FGFR2IIIb (protein, UniProt P21781 32-194, looked up)
# Fibroblast growth factor 7: CNDMTPEQMATNVNCSSPERHTRSYDYMEGGDIRVRRLFCRTQWYLRIDKRGKVKGTQEMKNNYNIMEIRTVAVGIVAIKGVESEFYLAMNKEGKLYAKKECNEDCNFKELILENHYNTYASAKWTHNGGEMFVALNQKGIPVRGKKTKKEQKTAHFLPMAIT
# How the values were obtained:
# Assay type in all cases: cell-based, human
# [1] = test system: GFP-labeled cancer cell lines; assay: Effect of secreted factors on proliferation under DMSO (pScore); details: DMSO control experiments
# Excerpt: FIGS. 8A-D show schematic overviews of rScore and bScore calculation. Calculation of rScore and bScore is derived from the data points A, B, C, D marked on GFP-level curves of cells under different treatment conditions, as shown in FIGS. 8A-B. As all cells used in the screen are constitutively expressing GFP, GFP level was used as a proxy for the number of cells. […] Proliferation score (pScore) describes the percent of change in the number of cells after seven days of treatment with a given factor. Rescue score (rScore) quantifies the effect of a given factor on the resistance to a given drug. Relative rescue describes the proportion of cells treated with drug+factor out of untreated cells. The higher this ratio, the stronger effect the factor has on drug resistance. Residual drug growth describes the proportion of cells growth under drug relative to no treatment condition. […] Finally, the rescue score (rScore) is the relative rescue after adding a penalty for drugs with low efficacy. […] Bliss Score (bScore) quantifies the extent of synergism between a given factor and a given drug. Factor effect describes the proportion (or probability) of cells killed by the factor. Drug effect describes the proportion (or probability) of cells killed by the drug. The observed killing effect (observed effect) describes the proportion (or probability) of cells killed by both factor and drug. Assuming drug killing and factor killing are independent events, the expected killing effect (expected effect) is the sum of probabilities D and F excluding events intersection (D*F), which represents a subpopulation of cells that may be sensitive to both the drug and factor. Finally, bliss score (bScore) is the delta between observed and expected killing multiplied by −1 to symbolize the expected decrease in the number of cancer cells following the addition of a factor. […] Upper panel—effect on cells proliferation. […] The number of experiments (out of 79) with pro-proliferative effect (pScore>30%) and anti-proliferative effect (pScore<−30%) were counted for each factor in the secretome library. […]
# [2] = test system: BRAF (V600E) colorectal cancer cell lines; assay: High-throughput secretome screen of GFP-labeled cells (rScore); details: colorectal cell lines bearing BRAF (V600E); BRAF/MEK inhibitors
# Protocol: (§1) Cell lines—All cell lines (Table 1 hereinbelow) were cultured in DMEM supplemented with 100 units/ml Penicillin and Streptomycin, 2 μmM Glutamine, 1 μmM Pyruvate and 10% FCS, and maintained in a humidified incubator at 37° C. and 5% CO2. Cells were routinely tested for Mycoplasma contamination by PCR. To generate stable cell lines constitutively expressing GFP, cells were infected with lentivirus bearing plasmid pLEX_TRC206 and sorted by FACS to enrich for GFP positive population. For the in-vitro experiments, human cancer cell lines which constitutively expressed GFP were treated with various cytotoxic and targeted drugs (see Table 1 hereinbelow); and the effect of different secreted factors (Table 2 hereinbelow) on the innate resistance to a drug based on the cells' GFP level was determined.
# (§2) High throughput in-vitro screens—For high-throughput screens or drug dose curves, cells were counted by Vi-Cell XR (Beckman coulter). Cells were seeded on 384 wells plates (Corning, 3712) using the EL406 washer dispenser (BioTek). Liquid handling of medium and drugs was effected by CyBi (WellFlex vario, CyBio). GFP fluorescence of cells was measured at 477/517 nm (excitation/emission) using Cytation3 (BioTek). Due to fluorescence reading bias at plate margins and corners, these margins were discarded for analysis.
# High-throughput secretome screens—To screen for the effect of secreted factors on the response of cell lines to different drugs, the following seven-days procedure was performed. On day 0, GFP expressing cells were seeded at 1500-2000 cells per well on 384-wells plates (Corning, 3712), depending on the cell line's proliferation rate. Each plate was seeded with one cell line. […] Cell fluorescence was read at days 1, 4 and 7 by Cytation3, and for some of the experiments at day 6 as well. […]
# (2) Based on observations, the plate area spanning rows 4-13 and columns 4-21 was hardly affected by plate margins biases. […] Next, to capture row and column (col) biases for the i-th row and the j-th column, the bias factor was calculated: […]
# [3] = test system: BRAF (V600E) melanoma cell lines; assay: High-throughput secretome screen of GFP-labeled cells (rScore, bScore, ranks); details: melanoma cell lines bearing BRAF (V600E); BRAF/MEK inhibitors
# Protocol: as §1, §2
# High-throughput secretome screens—To screen for the effect of secreted factors on the response of cell lines to different drugs, the following seven-days procedure was performed. On day 0, GFP expressing cells were seeded at 1500-2000 cells per well on 384-wells plates (Corning, 3712), depending on the cell line's proliferation rate. Each plate was seeded with one cell line. At day 1, each plate was treated with the secretome library (Table 2 hereinabove), one well per factor. Immediately afterwards, each plate was treated either with a drug (Table 1 hereinabove) at the EC90 concentration or with DMSO control. The CyBi liquid handler was used to treat each plate with a drug and the secretome library as well as to replace the medium, drug and secreted factors following 3 days of incubation (day 4). Cell fluorescence was read at days 1, 4 and 7 by Cytation3, and for some of the experiments at day 6 as well. Wells of interest were imaged at day 7 using the Operetta (PerkinElmer).
# (2) Based on observations, the plate area spanning rows 4-13 and columns 4-21 was hardly affected by plate margins biases. This area is referred to herein as plate core. To control for row specific and column specific biases, plate outliers (Zscore>4 or Zscore<−4) and edges were masked. Next, to capture row and column (col) biases for the i-th row and the j-th column, the bias factor was calculated:
# Upon QC completion, 199 experiment plates and 79 control (DMSO) plates were left for further analysis. • 4—Scoring methods-A GFP value for wells without secretome factors was obtained by averaging over the plate internal control wells. Those wells contained the solvents used in the secretome library. pScore: The effect of the secreted factors on proliferation under DMSO was evaluated using pScore (proliferation score). Values were given in percent units.
# rScore: The effect of the secreted factors on resistance to anti-cancer drugs was evaluated using rScore (rescue score). rScore was assigned to a given factor under two conditions: • 1. drug effect was >30% (residual drug growth<0.7) • 2. proliferation ratio between factor treated and untreated cells in the presence of drug was higher than one:
# rSscore=S−S*residual drug growth
# Based on manual inspection of the rScore distribution across the data, the threshold for a potential effect on drug resistance was set to 0.2 (FIGS. 8A-D).
# (*) Negative values were considered as zero. […] Groups with less than 4 experiments were discarded, finally resulting in 13 groups of experiments (FIG. 1E). […]
# pERK in G361 cell line = assay: In-cell western blot of pERK; details: G361 cells treated with the BRAF inhibitor (vemurafenib 2 μM and trametinib 1 nM)
# Protocol: PLX4720—BRAFi, 2 μM; PD184352—MEKi, 1 μM, EMAPII—50 ng/ml. P-value of the difference between GFP(drug)/GFP(no-treatment) and GFP(drug+EMAPII)/GFP(no-treatment), at day 7, was calculated by two-sided t-test. ** p<0.01, *** p<0.001. Average rScore (+/−SE) was calculated from at least four different experiments. […] A total of 69 experiments are shown. […] The effect of FGF2 (10 ng/ml), EMAPII (10 ng/ml) or AIMP1 (10 ng/ml) on G361 μmelanoma cells treated with vemurafenib (2 μM) was measured with or without the FGFR inhibitor PD17307 (0.5 μM). Data represent an average of 4 to 8 experiments. P-value was calculated by two-sided t-test. *** p<0.001. Error bars represent standard error. […] P-values were calculated by two-sided t-test relative to luciferase. * p<0.05, Q-value=0.1. […] P-value was calculated by two-sided t-test. *** p<0.001.
# In-cell western blot—To validate that EMAPII mediates its effect on resistance to BRAF inhibition via the FGF receptors (FIG. 2G), the melanoma BRAF mutated cell line G361 was seeded in a 384-wells plate at a concentration of 16,000 cells per well. […] Finally, the plate was scanned with Odyssey (Li-cor) using microplate settings (169 μm, […]), and fluorescence intensity was quantified and normalized to the DRAQ level, and then to no drug control (DMSO).
Molecule,effect on proliferation (pScore) [1],effect on drug resistance [2],further results
insulin: pro-proliferative secreted factor,pro-proliferative,,
neuregulin-1,pro-proliferative,,
B1,,could confer drug resistance to colorectal cancers,effect on drug resistance [3]: much smaller effect on melanoma cell lines
B2,anti-proliferative,,
B3,,,pERK reactivation (pERK in G361 cell line): partially reactivate pERK
B4,,mediate resistance only to the colorectal cell lines,
B5,,could confer drug resistance to colorectal cancers,effect on drug resistance [3]: much smaller effect on melanoma cell lines
